In the supplement of paper PMC10567573:

B1: ZNF232 (parent)
chain: FPKSEQVYLHFLSVVTEDGPEPKD

Variants of: B1
Test: protein stability index of a GFP-peptide fusion (GPS, HEK-293T) (PSI 1-6); higher = more stable
Conditions: c terminus: a fixed tail appended
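Also: lentivirally expressed fusions sorted by FACS into six bins by GFP to DsRed ratio, PSI derived from sequencing read proportions per bin multiplied by bin number.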

**Q.** With FPKSGQVYLHFLSVVTEDGPEPKD [E5G] as the variant, how does the protein stability index read?
**A.** 1.61

**Q.** For FPKSFQVYLHFLSVVTEDGPEPKD [E5F], which protein stability index is on record?
**A.** 2.35

**Q.** Which protein stability index does the source give for FPKSIQVYLHFLSVVTEDGPEPKD [E5I] here?
**A.** 2.23

**Q.** Which protein stability index does the source give for FPKSSQVYLHFLSVVTEDGPEPKD [E5S] here?
**A.** 1.7

**Q.** With FPKSLQVYLHFLSVVTEDGPEPKD [E5L] as the variant, how does the protein stability index read?
**A.** 2.47

**Q.** For FPKSWQVYLHFLSVVTEDGPEPKD [E5W], which protein stability index is on record?
**A.** 2.02

**Q.** With FPKSYQVYLHFLSVVTEDGPEPKD [E5Y] as the variant, how does the protein stability index read?
**A.** 1.19

**Q.** Which protein stability index does the source give for FPKSTQVYLHFLSVVTEDGPEPKD [E5T] here?
**A.** 1.59

**Q.** For FPKSDQVYLHFLSVVTEDGPEPKD [E5D], which protein stability index is on record?
**A.** 2.84

**Q.** With FPKSKQVYLHFLSVVTEDGPEPKD [E5K] as the variant, how does the protein stability index read?
**A.** 3.34

**Q.** With FPKSMQVYLHFLSVVTEDGPEPKD [E5M] as the variant, how does the protein stability index read?
**A.** 2.04

**Q.** With FPKSVQVYLHFLSVVTEDGPEPKD [E5V] as the variant, how does the protein stability index read?
**A.** 2.58

**Q.** For FPKSQQVYLHFLSVVTEDGPEPKD [E5Q], which protein stability index is on record?
**A.** 1.9

**Q.** For FPKSHQVYLHFLSVVTEDGPEPKD [E5H], which protein stability index is on record?
**A.** 2.31

**Q.** For FPKSPQVYLHFLSVVTEDGPEPKD [E5P], which protein stability index is on record?
**A.** 1.75

**Q.** Which protein stability index does the source give for FPKSCQVYLHFLSVVTEDGPEPKD [E5C] here?
**A.** 1.65

**Q.** Which protein stability index does the source give for FPKSEQVYVHFLSVVTEDGPEPKD [L9V] here?
**A.** 1.71

**Q.** With FPKSEQVYYHFLSVVTEDGPEPKD [L9Y] as the variant, how does the protein stability index read?
**A.** 2.53

**Q.** With FPKSEQVYTHFLSVVTEDGPEPKD [L9T] as the variant, how does the protein stability index read?
**A.** 2.62

**Q.** For FPKSEQVYSHFLSVVTEDGPEPKD [L9S], which protein stability index is on record?
**A.** 2.32

**Q.** With FPKSEQVYEHFLSVVTEDGPEPKD [L9E] as the variant, how does the protein stability index read?
**A.** 3.54

**Q.** For FPKSEQVYRHFLSVVTEDGPEPKD [L9R], which protein stability index is on record?
**A.** 2.11

**Q.** With FPKSEQVYWHFLSVVTEDGPEPKD [L9W] as the variant, how does the protein stability index read?
**A.** 1.71

**Q.** For FPKSEQVYIHFLSVVTEDGPEPKD [L9I], which protein stability index is on record?
**A.** 1.83

**Q.** Which protein stability index does the source give for FPKSEQVYHHFLSVVTEDGPEPKD [L9H] here?
**A.** 2.53

**Q.** For FPKSEQVYQHFLSVVTEDGPEPKD [L9Q], which protein stability index is on record?
**A.** 2.78

**Q.** With FPKSEQVYKHFLSVVTEDGPEPKD [L9K] as the variant, how does the protein stability index read?
**A.** 2.5

**Q.** With FPKSEQVYMHFLSVVTEDGPEPKD [L9M] as the variant, how does the protein stability index read?
**A.** 1.29

**Q.** For FPKSEQVYFHFLSVVTEDGPEPKD [L9F], which protein stability index is on record?
**A.** 1.73

**Q.** Which protein stability index does the source give for FPKSEQVYPHFLSVVTEDGPEPKD [L9P] here?
**A.** 2.58

**Q.** Which protein stability index does the source give for FPKSEQVNLHFLSVVTEDGPEPKD [Y8N] here?
**A.** 2.01

**Q.** Which protein stability index does the source give for FPKSEQVFLHFLSVVTEDGPEPKD [Y8F] here?
**A.** 1.88

**Q.** Which protein stability index does the source give for FPKSEQVVLHFLSVVTEDGPEPKD [Y8V] here?
**A.** 1.98

**Q.** For FPKSEQVCLHFLSVVTEDGPEPKD [Y8C], which protein stability index is on record?
**A.** 2.49

**Q.** Which protein stability index does the source give for FPKSEQVPLHFLSVVTEDGPEPKD [Y8P] here?
**A.** 3.14

**Q.** With FPKSEQVALHFLSVVTEDGPEPKD [Y8A] as the variant, how does the protein stability index read?
**A.** 2.46

**Q.** With FPKSEQVWLHFLSVVTEDGPEPKD [Y8W] as the variant, how does the protein stability index read?
**A.** 2.2

**Q.** Which protein stability index does the source give for FPKSEQVILHFLSVVTEDGPEPKD [Y8I] here?
**A.** 2.27

**Q.** For FPKSEQVELHFLSVVTEDGPEPKD [Y8E], which protein stability index is on record?
**A.** 3.09

**Q.** Which protein stability index does the source give for FPKSEQVHLHFLSVVTEDGPEPKD [Y8H] here?
**A.** 2.31

**Q.** For FPKSEQVTLHFLSVVTEDGPEPKD [Y8T], which protein stability index is on record?
**A.** 2.13

**Q.** For FPKSEQVDLHFLSVVTEDGPEPKD [Y8D], which protein stability index is on record?
**A.** 3.55

**Q.** Which protein stability index does the source give for FPKSEQVLLHFLSVVTEDGPEPKD [Y8L] here?
**A.** 2.14

**Q.** For FPKSEQVGLHFLSVVTEDGPEPKD [Y8G], which protein stability index is on record?
**A.** 2.15

**Q.** For FPKSEQVQLHFLSVVTEDGPEPKD [Y8Q], which protein stability index is on record?
**A.** 3.33

**Q.** Which protein stability index does the source give for FPKSEQVYLHFLSVVIEDGPEPKD [T16I] here?
**A.** 2.19

**Q.** For FPKSEQVYLHFLSVVCEDGPEPKD [T16C], which protein stability index is on record?
**A.** 2.47

**Q.** For FPKSEQVYLHFLSVVEEDGPEPKD [T16E], which protein stability index is on record?
**A.** 2.38

**Q.** For FPKSEQVYLHFLSVVDEDGPEPKD [T16D], which protein stability index is on record?
**A.** 2.26

**Q.** Which protein stability index does the source give for FPKSEQVYLHFLSVVSEDGPEPKD [T16S] here?
**A.** 2.31

**Q.** With FPKSEQVYLHFLSVVAEDGPEPKD [T16A] as the variant, how does the protein stability index read?
**A.** 2.31

**Q.** For FPKSEQVYLHFLSVVLEDGPEPKD [T16L], which protein stability index is on record?
**A.** 1.85

**Q.** With FPKSEQVYLHFLSVVKEDGPEPKD [T16K] as the variant, how does the protein stability index read?
**A.** 2.77

**Q.** With FPKSEQVYLHFLSVVFEDGPEPKD [T16F] as the variant, how does the protein stability index read?
**A.** 1.63

**Q.** For FPKSEQVYLHFLSVVQEDGPEPKD [T16Q], which protein stability index is on record?
**A.** 1.87

**Q.** For FPKSEQVYLHFLSVVNEDGPEPKD [T16N], which protein stability index is on record?
**A.** 2.42

**Q.** Which protein stability index does the source give for FPKSEQVYLHFLSVVPEDGPEPKD [T16P] here?
**A.** 3.37

**Q.** For FPKSEQVYLHFLSVVHEDGPEPKD [T16H], which protein stability index is on record?
**A.** 2.68

**Q.** For FPKSEQVYLHFLSVVVEDGPEPKD [T16V], which protein stability index is on record?
**A.** 1.81

**Q.** Which protein stability index does the source give for FPKSEQVYLHFLSVVWEDGPEPKD [T16W] here?
**A.** 1.89

**Q.** For FPKSEQVYLSFLSVVTEDGPEPKD [H10S], which protein stability index is on record?
**A.** 1.95

**Q.** With FPKSEQVYLPFLSVVTEDGPEPKD [H10P] as the variant, how does the protein stability index read?
**A.** 1.94

**Q.** With FPKSEQVYLCFLSVVTEDGPEPKD [H10C] as the variant, how does the protein stability index read?
**A.** 2.81

**Q.** Which protein stability index does the source give for FPKSEQVYLEFLSVVTEDGPEPKD [H10E] here?
**A.** 3.46

**Q.** Which protein stability index does the source give for FPKSEQVYLGFLSVVTEDGPEPKD [H10G] here?
**A.** 2.24

**Q.** For FPKSEQVYLIFLSVVTEDGPEPKD [H10I], which protein stability index is on record?
**A.** 1.26

**Q.** Which protein stability index does the source give for FPKSEQVYLQFLSVVTEDGPEPKD [H10Q] here?
**A.** 2.36

**Q.** For FPKSEQVYLRFLSVVTEDGPEPKD [H10R], which protein stability index is on record?
**A.** 4.1

**Q.** With FPKSEQVYLKFLSVVTEDGPEPKD [H10K] as the variant, how does the protein stability index read?
**A.** 2.73

**Q.** For FPKSEQVYLDFLSVVTEDGPEPKD [H10D], which protein stability index is on record?
**A.** 3.04

**Q.** Which protein stability index does the source give for FPKSEQVYLMFLSVVTEDGPEPKD [H10M] here?
**A.** 2.65

**Q.** Which protein stability index does the source give for FPKSEQVYLAFLSVVTEDGPEPKD [H10A] here?
**A.** 3.29

**Q.** For FPKSEQVYLVFLSVVTEDGPEPKD [H10V], which protein stability index is on record?
**A.** 1.94

**Q.** Which protein stability index does the source give for FPKSEQVYLHFPSVVTEDGPEPKD [L12P] here?
**A.** 2.34

**Q.** For FPKSEQVYLHFNSVVTEDGPEPKD [L12N], which protein stability index is on record?
**A.** 3.61

**Q.** Which protein stability index does the source give for FPKSEQVYLHFHSVVTEDGPEPKD [L12H] here?
**A.** 3.49

**Q.** With FPKSEQVYLHFVSVVTEDGPEPKD [L12V] as the variant, how does the protein stability index read?
**A.** 2.48

**Q.** Which protein stability index does the source give for FPKSEQVYLHFGSVVTEDGPEPKD [L12G] here?
**A.** 3.24

**Q.** For FPKSEQVYLHFISVVTEDGPEPKD [L12I], which protein stability index is on record?
**A.** 1.97

**Q.** Which protein stability index does the source give for FPKSEQVYLHFMSVVTEDGPEPKD [L12M] here?
**A.** 3.84

**Q.** For FPKSEQVYLHFTSVVTEDGPEPKD [L12T], which protein stability index is on record?
**A.** 2.58

**Q.** Which protein stability index does the source give for FPKSEQVYLHFDSVVTEDGPEPKD [L12D] here?
**A.** 3.67

**Q.** For FPKSEQVYLHFCSVVTEDGPEPKD [L12C], which protein stability index is on record?
**A.** 2.07

**Q.** Which protein stability index does the source give for FPKSEQVYLHFKSVVTEDGPEPKD [L12K] here?
**A.** 3.6

**Q.** For FPKSEQVYLHFFSVVTEDGPEPKD [L12F], which protein stability index is on record?
**A.** 1.73

**Q.** Which protein stability index does the source give for FPKSEQVYLHFQSVVTEDGPEPKD [L12Q] here?
**A.** 3.99

**Q.** For FPKSEQVYLHFWSVVTEDGPEPKD [L12W], which protein stability index is on record?
**A.** 1.21

**Q.** For FPKSEQVYLHFSSVVTEDGPEPKD [L12S], which protein stability index is on record?
**A.** 2.75

**Q.** For FPKSEQVYLHFESVVTEDGPEPKD [L12E], which protein stability index is on record?
**A.** 3.96

**Q.** For FPKSEVVYLHFLSVVTEDGPEPKD [Q6V], which protein stability index is on record?
**A.** 1.21

**Q.** For FPKSECVYLHFLSVVTEDGPEPKD [Q6C], which protein stability index is on record?
**A.** 2.19

**Q.** With FPKSEAVYLHFLSVVTEDGPEPKD [Q6A] as the variant, how does the protein stability index read?
**A.** 2.3

**Q.** Which protein stability index does the source give for FPKSELVYLHFLSVVTEDGPEPKD [Q6L] here?
**A.** 2.18

**Q.** Which protein stability index does the source give for FPKSERVYLHFLSVVTEDGPEPKD [Q6R] here?
**A.** 1.85
